Key:
[1] = test system: pluripotent stem cells; assay: Proliferation and phenotypic responses to bioactive factors: pluripotent cells; format: cell-based
Text: (§1) Having access to mixed populations of progenitor stem cells, progenitor stem cell clones, and pluripotent stem cell clones permits one to address the influence of various bioactive factors (e.g. recombinant growth factors, purified compounds, and novel inductive factors) on the growth characteristics and phenotypic expression of these stem cells.
Cryopreserved cells are thawed and plated in MSC-1 at 5, 10, or 20×10^3 cells per well of gelatinized 24-well plates following the standard protocol. Twenty-four hours after initial plating the medium is changed to testing medium (TM) 1 to 6 (TM-1, TM-2, TM-3, TM-4, TM-5, or TM-6). TM-1 to TM-4 consist of Ultraculture (cat. no. 12-725B, lot. nos. OMO455 [TM-1], 1M1724 [TM-2], 2M0420 [TM-3], or 2M0274 [TM-4], Bio-Whittaker, Walkersville, Md.), medium (EMEM or Opti-MEM 0.01 mM β-mercaptoethanol), and 1% (v/v) antibiotic-antimycotic, pH 7.4. TM-5 consists of 98% (v/v) medium, 1% (v/v) HS, and 1% (v/v) antibiotic-antimycotic, pH 7.4. TM-6 consists of 98.5% (v/v) medium, 0.5% (v/v) HS, and 1% (v/v) antibiotic-antimycotic, pH 7.4. […] Four testing media (TM#'s 1-4), each containing various concentrations of Ultraculture, were used as. […] The four Ultraculture-based testing media were: TM-1=15% (v/v) Ultraculture (Lot no. OMO455): 84% (v/v) medium: 1% (v/v) antibiotics; TM-2=15% (v/v) Ultraculture (Lot no. 1M1724): 84% (v/v) medium: 1% (v/v) antibiotics; TM-3=50% (v/v) Ultraculture (Lot no. 2M0420): 49% (v/v) medium: 1% (v/v) antibiotics; and TM-4=75% (v/v) Ultraculture (Lot no. 2M0274): 24% (v/v) medium: 1% (v/v) antibiotics. Pre-incubation for 24 hr in testing medium alone is used to wash out any potential synergistic components in the MSC-1 medium. Twenty-four hours later the testing medium is changed to one of the following. For controls, TM-1 to TM-6 alone is used. To identify clones of progenitor cells, the medium is replaced with TM-1 to TM-6 containing 2 μg/ml insulin (Sigma), an agent that accelerates the appearance of phenotypic expression markers in progenitor cells (TABLE 12). […]

[2] = test system: progenitor stem cells; assay: Proliferation and phenotypic responses to bioactive factors: progenitor cells; format: cell-based
Text: as §1
Cryopreserved cells are thawed and plated in MSC-1 at 5, 10, or 20×10^3 cells per well of gelatinized 24-well plates following the standard protocol. Twenty-four hours after initial plating the medium is changed to testing medium (TM) 1 to 6 (TM-1, TM-2, TM-3, TM-4, TM-5, or TM-6). TM-1 to TM-4 consist of Ultraculture (cat. no. 12-725B, lot. nos. OMO455 [TM-1], 1M1724 [TM-2], 2M0420 [TM-3], or 2M0274 [TM-4], Bio-Whittaker, Walkersville, Md.), medium (EMEM or Opti-MEM 0.01 mM β-mercaptoethanol), and 1% (v/v) antibiotic-antimycotic, pH 7.4. TM-5 consists of 98% (v/v) medium, 1% (v/v) HS, and 1% (v/v) antibiotic-antimycotic, pH 7.4. TM-6 consists of 98.5% (v/v) medium, 0.5% (v/v) HS, and 1% (v/v) antibiotic-antimycotic, pH 7.4. […] Four testing media (TM#'s 1-4), each containing various concentrations of Ultraculture, were used as. […]

[3] = presence and approximate distribution of differentiated phenotypes within the culture wells

B1: PDECGF: Platelet-derived endothelial cell growth factor (protein, UniProt P19971 11-482, looked up)
Thymidine phosphorylase: APPAPGDFSGEGSQGLPDPSPEPKQLPELIRMKRDGGRLSEADIRGFVAAVVNGSAQGAQIGAMLMAIRLRGMDLEETSVLTQALAQSGQQLEWPEAWRQQLVDKHSTGGVGDKVSLVLAPALAACGCKVPMISGRGLGHTGGTLDKLESIPGFNVIQSPEQMQVLLDQAGCCIVGQSEQLVPADGILYAARDVTATVDSLPLITASILSKKLVEGLSALVVDVKFGGAAVFPNQEQARELAKTLVGVGASLGLRVAAALTAMDKPLGRCVGHALEVEEALLCMDGAGPPDLRDLVTTLGGALLWLSGHAGTQAQGAARVAAALDDGSALGRFERMLAAQGVDPGLARALCSGSPAERRQLLPRAREQEELLAPADGTVELVRALPLALVLHELGAGRSRAGEPLRLGVGAELLVDVGQRLRRGTPWLRVHRDGPALSGPQSRALQEALVLSDRAPFAAPSPFAELVLPPQQ
- Proliferation, Pluripotent: number of times the agent increased the DNA content per well versus its respective control [1]: 1 times
- activity on pluripotent and progenitor stem cells, in words ([1]; pluripotent and progenitor cells): no measurable effect on either progenitor or pluripotent stem cells
- Phenotypic Expression, Pluripotent [1, 3]: 0
- Proliferation, Progenitor: number of times the agent increased the DNA content per well versus its respective control [2]: 1 times
- Phenotypic Expression, Progenitor [2, 3]: All+
